Results as given in the supplement of paper PMC12855868.

B1: library; numbered along this chain (parent)
chain: MAAAGGARLLRAASAVLGGPAGRWLHHAGSRAGSSGLLRNRGPGGSAEASRSLSVSARARSSSEDKITVHFINRDGETLTTKGKVGDSLLDVVVENNLDIDGFGACEGTLACSTCHLIFEDHIYEKLDAITDEENDMLDLAYGLTDRSRLGCQICLTKSMDNMTVRVPETVADARQSIDVGKTS

Variants of: B1
Assay: scaled log2 fold change in cell abundance, elesclomol vs control (0 = silent mean, 1 = nonsense mean) (scaled log2 ratio); higher = higher viability under elesclomol (loss of FDX1 cuproptosis function)
Conditions: glucose 10 mM
Method: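 Deep mutational scan of full-length human FDX1: a pooled saturation-mutagenesis ORF library (every residue 2-184 mutated to all 19 amino acids plus stop, and silent codons where available) was expressed by lentivirus in FDX1-knockout ABC1 (14 days) or HEK293T (11 days) cells grown with elesclomol (ES) or DMSO control. Variant abundance came from ORF sequencing. The log2 fold change (ES vs control, mean of duplicates) was centred on the silent-variant mean (0) and scaled to the nonsense-variant mean (1). Higher values mean greater viability under ES, i.e. loss of FDX1 function in cuproptosis.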

[1] = with ABC1 FDX1 KO, elesclomol 5 nM, 14 days
[2] = with HEK293T FDX1 KO, elesclomol 40 nM, 11 days
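Also: variant abundance is its share of total variant reads in each endpoint sample, from next-generation sequencing of the integrated ORF PCR-amplified out of genomic DNA.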

G22K
scaled log2 fold change [1]: 0.385
scaled log2 fold change [2]: 0.488

G22P
scaled log2 fold change [1]: 0.294

G22V
scaled log2 fold change [1]: 0.245

G22C
scaled log2 fold change [1]: -0.919

L17H
scaled log2 fold change [1]: -0.27
scaled log2 fold change [2]: -0.167

L17R
scaled log2 fold change [1]: -0.051
scaled log2 fold change [2]: 0.603

L17F
scaled log2 fold change [1]: -0.361
scaled log2 fold change [2]: 0.252

L17A
scaled log2 fold change [1]: -0.194

L17W
scaled log2 fold change [1]: 0.321
scaled log2 fold change [2]: -0.126

L17K
scaled log2 fold change [1]: -0.392
scaled log2 fold change [2]: -0.386

L17G
scaled log2 fold change [1]: 0.217
scaled log2 fold change [2]: -0.178

L17V
scaled log2 fold change [1]: -0.232

L17T
scaled log2 fold change [1]: 0.262
scaled log2 fold change [2]: -0.223

L17D
scaled log2 fold change [1]: 0.342
scaled log2 fold change [2]: 0.653

L17E
scaled log2 fold change [1]: 0.227

L17S
scaled log2 fold change [1]: 0.386
scaled log2 fold change [2]: 0.458

L17M
scaled log2 fold change [1]: 0.05
scaled log2 fold change [2]: 0.0514

L17P
scaled log2 fold change [1]: -0.107

L17I
scaled log2 fold change [1]: -0.552
scaled log2 fold change [2]: -0.833

L17C
scaled log2 fold change [1]: 0.0553
scaled log2 fold change [2]: 0.966

L17Q
scaled log2 fold change [1]: -0.0277
scaled log2 fold change [2]: -0.517

L17N
scaled log2 fold change [1]: 0.306

L17Y
scaled log2 fold change [1]: -0.147
scaled log2 fold change [2]: 0.613

G18S
scaled log2 fold change [1]: 0.392
scaled log2 fold change [2]: 0.921

G18T
scaled log2 fold change [1]: 0.225
scaled log2 fold change [2]: 0.0755

G18N
scaled log2 fold change [1]: 0.408
scaled log2 fold change [2]: 0.649

G18L
scaled log2 fold change [1]: -0.655
scaled log2 fold change [2]: 0.123

G18D
scaled log2 fold change [1]: -0.233
scaled log2 fold change [2]: 0.58

G18V
scaled log2 fold change [1]: 0.494
scaled log2 fold change [2]: -0.0846

G18A
scaled log2 fold change [1]: -0.164
scaled log2 fold change [2]: 0.946

G18W
scaled log2 fold change [1]: -0.00826
scaled log2 fold change [2]: -0.224

G18F
scaled log2 fold change [1]: 0.00932
scaled log2 fold change [2]: 0.79

G18M
scaled log2 fold change [1]: 0.0948
scaled log2 fold change [2]: 0.156

G18R
scaled log2 fold change [1]: 0.241
scaled log2 fold change [2]: -0.618

G18C
scaled log2 fold change [1]: 0.14
scaled log2 fold change [2]: 0.923

G18E
scaled log2 fold change [1]: -0.165
scaled log2 fold change [2]: -0.152

G18Q
scaled log2 fold change [1]: -0.43
scaled log2 fold change [2]: 0.977

G18Y
scaled log2 fold change [1]: 0.0736
scaled log2 fold change [2]: 0.324

G18H
scaled log2 fold change [1]: 0.0847
scaled log2 fold change [2]: -0.242

G18K
scaled log2 fold change [1]: 0.322
scaled log2 fold change [2]: 0.179

G18P
scaled log2 fold change [1]: 0.0386

G18I
scaled log2 fold change [1]: 0.0859
scaled log2 fold change [2]: -0.0341

H27R
scaled log2 fold change [1]: 0.168
scaled log2 fold change [2]: -0.247

H27K
scaled log2 fold change [1]: 0.325
scaled log2 fold change [2]: 0.621

H27C
scaled log2 fold change [1]: 0.145
scaled log2 fold change [2]: -0.412

H27G
scaled log2 fold change [1]: 0.0381
scaled log2 fold change [2]: -0.171

H27S
scaled log2 fold change [1]: 0.273

H27Q
scaled log2 fold change [1]: 0.286
scaled log2 fold change [2]: -0.318

H27N
scaled log2 fold change [1]: -0.105
scaled log2 fold change [2]: 0.565

H27E
scaled log2 fold change [1]: -0.316
scaled log2 fold change [2]: -0.0257

H27A
scaled log2 fold change [1]: -0.0135
scaled log2 fold change [2]: 0.337

H27V
scaled log2 fold change [1]: 0.305
scaled log2 fold change [2]: 0.364

H27Y
scaled log2 fold change [1]: -0.231
scaled log2 fold change [2]: 0.0795

H27T
scaled log2 fold change [1]: -0.307

H27P
scaled log2 fold change [1]: -0.143

H27L
scaled log2 fold change [1]: 0.396

H27W
scaled log2 fold change [1]: -0.436
scaled log2 fold change [2]: 0.305

H27D
scaled log2 fold change [1]: -0.0235
scaled log2 fold change [2]: -0.507

H27M
scaled log2 fold change [1]: 0.0388

H27I
scaled log2 fold change [1]: -0.11
scaled log2 fold change [2]: 1.23

H27F
scaled log2 fold change [1]: 0.196
scaled log2 fold change [2]: 0.363

P20T
scaled log2 fold change [1]: 0.221
